Measured values published in patent US20220135684A1 (published 2022).
Like-named read-outs stand apart in the source and are kept apart here. Blank lines part the entries; values can stand above or below the binder they belong to.

Tests used:
human CD28 [1] = target: T1, human CD28 (human, UniProt P10747 19-152); assay: Octet; avid
cynomolgus PDL1 antigen [2] = target: T2, cynomolgus PDL1 antigen (cynomolgus, UniProt G7PSE7 19-238); assay: SPR (Biacore); EXP2
human CD28 [3] = target: T1, human CD28
cynomolgus PDL1 antigen [4] = target: T2, cynomolgus PDL1 antigen; assay: SPR (Biacore); EXP1
human CD28 [5] = target: T1, human CD28; assay: BLI (Octet); average of HIS1K and SA capture
human CD28 [6] = target: T1, human CD28; assay: -; scFv VHVL in 1+1 Fab-scFv-Fc bsAb
human PDL1 antigen [7] = target: T3, human PDL1 antigen (human, UniProt Q9NZQ7 19-238)
human PDL1 antigen [8] = target: T3, human PDL1 antigen; assay: SPR (Biacore); EXP1

B2: αPDL1×αCD28 bsAb with PDL1 binding domain 2G4_H1.12_L1.66 and CD28 binding domain 1A7_H1.14_L1.71 (bispecific antibody)
heavy: EVQLLESGGGLVQPGGSLRLSCAASGFTFSVYDMSWVRQAPGKRLEWVSTISSGGSFTHYPDSVKGRFTISRDNSKNTLYLQMNSLRAEDTAVYYCVRRSLDWYFDVWGAGTTVTVSSASTKGPSVFPLAPSSKSTSGGTAALGCLVKDYFPEPVTVSWNSGALTSGVHTFPAVLQSSGLYSLSSVVTVPSSSLGTQTYICNVNHKPSDTKVDKKVEPKSCDKTHTCPPCPAPPVAGPSVFLFPPKPKDTLMISRTPEVTCVVVDVKHEDPEVKFNWYVDGVEVHNAKTKPREEEYNSTYRVVSVLTVLHQDWLNGKEYKCKVSNKALPAPIEKTISKAKGQPREPQVYTLPPSREEMTKNQVSLTCDVSGFYPSDIAVEWESDGQPENNYKTTPPVLDSDGSFFLYSKLTVDKSRWEQGDVFSCSVMHEALHNHYTQKSLSLSPGK
scFv-Fc: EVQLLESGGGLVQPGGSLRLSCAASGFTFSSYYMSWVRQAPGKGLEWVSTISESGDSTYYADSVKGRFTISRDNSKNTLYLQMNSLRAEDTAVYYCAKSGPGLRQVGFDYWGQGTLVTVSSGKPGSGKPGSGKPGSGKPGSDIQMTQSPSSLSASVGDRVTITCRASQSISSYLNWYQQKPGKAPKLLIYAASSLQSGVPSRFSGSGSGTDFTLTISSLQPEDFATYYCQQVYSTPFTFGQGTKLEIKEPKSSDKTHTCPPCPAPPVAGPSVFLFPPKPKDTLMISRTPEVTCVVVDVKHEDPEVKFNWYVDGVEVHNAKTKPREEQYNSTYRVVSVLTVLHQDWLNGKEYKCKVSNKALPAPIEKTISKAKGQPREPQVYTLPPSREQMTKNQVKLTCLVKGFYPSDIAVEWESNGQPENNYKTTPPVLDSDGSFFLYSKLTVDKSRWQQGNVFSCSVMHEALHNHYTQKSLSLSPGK
light: EIVLTQSPGTLSLSPGERATLSCRVSSSIQSTNLHWYQQKPGQSPRPLIYGTSNLATGVPVRFSGSGSGTDYTLTISRLEPEDFAVYYCQQWSSYPLYTFGGGTKVEIKRTVAAPSVFIFPPSDEQLKSGTASVVCLLNNFYPREAKVQWKVDNALQSGNSQESVTEQDSKDSTYSLSSTLTLSKADYEKHKVYACEVTHQGLSSPVTKSFNRGEC
Kd (cynomolgus PDL1 antigen [2]): 1.7 nM

B3: αPDL1×αCD28 bsAb with PDL1 binding domain 2G4_H1.12_L1.14 and CD28 binding domain 1A7_H1.14_L1.71 (bispecific antibody)
heavy: EVQLLESGGGLVQPGGSLRLSCAASGFTFSVYDMSWVRQAPGKRLEWVSTISSGGSFTHYPDSVKGRFTISRDNSKNTLYLQMNSLRAEDTAVYYCVRRSLDWYFDVWGAGTTVTVSSASTKGPSVFPLAPSSKSTSGGTAALGCLVKDYFPEPVTVSWNSGALTSGVHTFPAVLQSSGLYSLSSVVTVPSSSLGTQTYICNVNHKPSDTKVDKKVEPKSCDKTHTCPPCPAPPVAGPSVFLFPPKPKDTLMISRTPEVTCVVVDVKHEDPEVKFNWYVDGVEVHNAKTKPREEEYNSTYRVVSVLTVLHQDWLNGKEYKCKVSNKALPAPIEKTISKAKGQPREPQVYTLPPSREEMTKNQVSLTCDVSGFYPSDIAVEWESDGQPENNYKTTPPVLDSDGSFFLYSKLTVDKSRWEQGDVFSCSVMHEALHNHYTQKSLSLSPGK
scFv-Fc: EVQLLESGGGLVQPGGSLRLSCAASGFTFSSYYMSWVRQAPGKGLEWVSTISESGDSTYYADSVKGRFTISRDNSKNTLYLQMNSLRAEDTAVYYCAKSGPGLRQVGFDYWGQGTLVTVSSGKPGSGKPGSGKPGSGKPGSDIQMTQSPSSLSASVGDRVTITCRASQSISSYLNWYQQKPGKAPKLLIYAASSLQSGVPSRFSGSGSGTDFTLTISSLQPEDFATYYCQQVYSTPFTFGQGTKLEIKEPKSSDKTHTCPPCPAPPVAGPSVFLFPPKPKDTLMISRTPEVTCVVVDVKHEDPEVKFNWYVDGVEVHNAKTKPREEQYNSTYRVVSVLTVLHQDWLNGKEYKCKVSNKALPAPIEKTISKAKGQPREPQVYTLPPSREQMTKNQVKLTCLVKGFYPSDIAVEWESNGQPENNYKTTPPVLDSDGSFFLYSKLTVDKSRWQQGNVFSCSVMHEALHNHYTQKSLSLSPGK
light: EIVLTQSPGTLSLSPGERATLSCRVSSSIQSSNLHWYQQKPGQSPRPLIYGTSNLASGVPVRFSGSGSGTDYTLTISRLEPEDFAVYYCQQWSSYPLYTFGGGTKVEIKRTVAAPSVFIFPPSDEQLKSGTASVVCLLNNFYPREAKVQWKVDNALQSGNSQESVTEQDSKDSTYSLSSTLTLSKADYEKHKVYACEVTHQGLSSPVTKSFNRGEC
Kd (cynomolgus PDL1 antigen [2]): 0.8 nM

B5: XENP36233 (bispecific antibody)
heavy: EVQLLESGGGLVQPGGSLRLSCAASGFTFSSYDMSWVRQAPGKRLEWVSTISSGGSFTHYPDSVKGRFTISRDNSKNTLYLQMNSLRAEDTAVYYCVRRSGDWYFDVWGAGTTVTVSSASTKGPSVFPLAPSSKSTSGGTAALGCLVKDYFPEPVTVSWNSGALTSGVHTFPAVLQSSGLYSLSSVVTVPSSSLGTQTYICNVNHKPSDTKVDKKVEPKSCDKTHTCPPCPAPPVAGPSVFLFPPKPKDTLMISRTPEVTCVVVDVKHEDPEVKFNWYVDGVEVHNAKTKPREEEYNSTYRVVSVLTVLHQDWLNGKEYKCKVSNKALPAPIEKTISKAKGQPREPQVYTLPPSREEMTKNQVSLTCDVSGFYPSDIAVEWESDGQPENNYKTTPPVLDSDGSFFLYSKLTVDKSRWEQGDVFSCSVMHEALHNHYTQKSLSLSPGK
scFv-Fc: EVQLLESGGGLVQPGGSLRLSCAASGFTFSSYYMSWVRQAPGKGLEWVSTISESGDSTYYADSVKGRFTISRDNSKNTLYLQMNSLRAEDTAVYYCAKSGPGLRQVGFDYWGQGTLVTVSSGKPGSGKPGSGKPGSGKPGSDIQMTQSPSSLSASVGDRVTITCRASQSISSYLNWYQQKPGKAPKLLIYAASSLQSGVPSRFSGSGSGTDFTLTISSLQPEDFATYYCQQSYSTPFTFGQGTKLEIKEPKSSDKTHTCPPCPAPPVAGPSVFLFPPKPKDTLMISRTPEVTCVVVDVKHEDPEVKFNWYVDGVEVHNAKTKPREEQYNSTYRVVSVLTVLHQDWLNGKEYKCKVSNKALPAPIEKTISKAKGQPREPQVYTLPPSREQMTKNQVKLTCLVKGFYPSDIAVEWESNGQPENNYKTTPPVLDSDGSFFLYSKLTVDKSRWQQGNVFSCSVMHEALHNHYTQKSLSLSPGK
light: EIVLTQSPGTLSLSPGERATLSCRVSSSISSSNLHWYQQKPGQSPRPLIYGTSNLASGVPVRFSGSGSGTDYTLTISRLEPEDFAVYYCQQWSSYPLYTFGGGTKVEIKRTVAAPSVFIFPPSDEQLKSGTASVVCLLNNFYPREAKVQWKVDNALQSGNSQESVTEQDSKDSTYSLSSTLTLSKADYEKHKVYACEVTHQGLSSPVTKSFNRGEC
Kd (human CD28 [5]): 229 nM
Kd (human CD28 [6]): 229 nM

B6: XENP37560 (bispecific antibody)
heavy: EVQLLESGGGLVQPGGSLRLSCAASGFTFSSYDMSWVRQAPGKRLEWVSTISSGGSFTHYPDSVKGRFTISRDNSKNTLYLQMNSLRAEDTAVYYCVRRSGDWYFDVWGAGTTVTVSSASTKGPSVFPLAPSSKSTSGGTAALGCLVKDYFPEPVTVSWNSGALTSGVHTFPAVLQSSGLYSLSSVVTVPSSSLGTQTYICNVNHKPSDTKVDKKVEPKSCDKTHTCPPCPAPPVAGPSVFLFPPKPKDTLMISRTPEVTCVVVDVKHEDPEVKFNWYVDGVEVHNAKTKPREEEYNSTYRVVSVLTVLHQDWLNGKEYKCKVSNKALPAPIEKTISKAKGQPREPQVYTLPPSREEMTKNQVSLTCDVSGFYPSDIAVEWESDGQPENNYKTTPPVLDSDGSFFLYSKLTVDKSRWEQGDVFSCSVMHEALHNHYTQKSLSLSPGK
scFv-Fc: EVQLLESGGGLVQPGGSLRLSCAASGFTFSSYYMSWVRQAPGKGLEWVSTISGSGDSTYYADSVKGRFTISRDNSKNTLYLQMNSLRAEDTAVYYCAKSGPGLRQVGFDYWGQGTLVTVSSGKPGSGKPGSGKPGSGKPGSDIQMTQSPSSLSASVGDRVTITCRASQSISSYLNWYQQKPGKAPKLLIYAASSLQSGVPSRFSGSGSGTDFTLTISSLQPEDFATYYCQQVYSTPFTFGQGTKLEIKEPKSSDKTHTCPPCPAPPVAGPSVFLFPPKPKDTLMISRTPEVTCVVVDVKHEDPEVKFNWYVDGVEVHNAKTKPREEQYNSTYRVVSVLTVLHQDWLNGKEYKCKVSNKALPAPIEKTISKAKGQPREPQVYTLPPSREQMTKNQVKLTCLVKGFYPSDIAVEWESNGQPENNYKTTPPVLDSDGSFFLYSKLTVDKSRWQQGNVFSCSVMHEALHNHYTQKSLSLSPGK
light: EIVLTQSPGTLSLSPGERATLSCRVSSSISSSNLHWYQQKPGQSPRPLIYGTSNLASGVPVRFSGSGSGTDYTLTISRLEPEDFAVYYCQQWSSYPLYTFGGGTKVEIKRTVAAPSVFIFPPSDEQLKSGTASVVCLLNNFYPREAKVQWKVDNALQSGNSQESVTEQDSKDSTYSLSSTLTLSKADYEKHKVYACEVTHQGLSSPVTKSFNRGEC
Kd (human CD28 [5]): 91.6 nM
Kd (human CD28 [6]): 91.6 nM

Further lines, results first:

Kd (human CD28 [1]): 14.5 nM
B1: XENP28428 (antibody, V domains shown)
VH: EVQLLESGGGLVQPGGSLRLSCAASGFTFSSYAMSWVRQAPGKGLEWVSTISGSGDSTYYADSVKGRFTISRDNSKNTLYLQMNSLRAEDTAVYYCAKSGPGLRQVGFDYWGQGTLVTVSS
VL: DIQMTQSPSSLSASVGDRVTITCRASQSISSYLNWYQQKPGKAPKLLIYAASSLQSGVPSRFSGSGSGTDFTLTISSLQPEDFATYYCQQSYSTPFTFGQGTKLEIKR

Kd (human CD28 [3]): 180 nM
Kd (cynomolgus PDL1 antigen [4]): 0.38 nM
B4: XENP38514 (bispecific antibody)
heavy: EVQLLESGGGLVQPGGSLRLSCAASGFTFSVYDMSWVRQAPGKRLEWVSTISSGGSFTHYPDSVKGRFTISRDNSKNTLYLQMNSLRAEDTAVYYCVRRSLDWYFDVWGAGTTVTVSSASTKGPSVFPLAPSSKSTSGGTAALGCLVKDYFPEPVTVSWNSGALTSGVHTFPAVLQSSGLYSLSSVVTVPSSSLGTQTYICNVNHKPSDTKVDKKVEPKSCDKTHTCPPCPAPPVAGPSVFLFPPKPKDTLMISRTPEVTCVVVDVKHEDPEVKFNWYVDGVEVHNAKTKPREEEYNSTYRVVSVLTVLHQDWLNGKEYKCKVSNKALPAPIEKTISKAKGQPREPQVYTLPPSREEMTKNQVSLTCDVSGFYPSDIAVEWESDGQPENNYKTTPPVLDSDGSFFLYSKLTVDKSRWEQGDVFSCSVMHEALHNHYTQKSLSLSPGK
scFv-Fc: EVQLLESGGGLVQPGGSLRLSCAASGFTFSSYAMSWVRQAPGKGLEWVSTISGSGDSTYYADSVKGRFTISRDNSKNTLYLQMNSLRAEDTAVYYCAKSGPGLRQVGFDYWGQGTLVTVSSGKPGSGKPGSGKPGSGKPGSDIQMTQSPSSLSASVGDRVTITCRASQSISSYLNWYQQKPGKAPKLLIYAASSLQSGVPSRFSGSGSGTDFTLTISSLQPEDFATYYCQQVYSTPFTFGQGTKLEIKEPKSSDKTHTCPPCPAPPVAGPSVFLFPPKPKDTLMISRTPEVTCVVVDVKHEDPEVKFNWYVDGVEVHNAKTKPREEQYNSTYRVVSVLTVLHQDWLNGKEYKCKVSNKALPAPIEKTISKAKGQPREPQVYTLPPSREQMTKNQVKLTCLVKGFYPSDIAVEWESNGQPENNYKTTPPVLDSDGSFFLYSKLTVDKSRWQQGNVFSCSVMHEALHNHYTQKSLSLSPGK
light: EIVLTQSPGTLSLSPGERATLSCRVSSSIQSTNLHWYQQKPGQSPRPLIYGTSVLATGVPVRFSGSGSGTDYTLTISRLEPEDFAVYYCQQWSSYPLYTFGGGTKVEIKRTVAAPSVFIFPPSDEQLKSGTASVVCLLNNFYPREAKVQWKVDNALQSGNSQESVTEQDSKDSTYSLSSTLTLSKADYEKHKVYACEVTHQGLSSPVTKSFNRGEC

Kd (cynomolgus PDL1 antigen [2]): 1.5 nM
B7: αPDL1×αCD28 bsAb with PDL1 binding domain 2G4_H1.12_L1.68 and CD28 binding domain 1A7_H1.14_L1.71 (bispecific antibody)
heavy: EVQLLESGGGLVQPGGSLRLSCAASGFTFSVYDMSWVRQAPGKRLEWVSTISSGGSFTHYPDSVKGRFTISRDNSKNTLYLQMNSLRAEDTAVYYCVRRSLDWYFDVWGAGTTVTVSSASTKGPSVFPLAPSSKSTSGGTAALGCLVKDYFPEPVTVSWNSGALTSGVHTFPAVLQSSGLYSLSSVVTVPSSSLGTQTYICNVNHKPSDTKVDKKVEPKSCDKTHTCPPCPAPPVAGPSVFLFPPKPKDTLMISRTPEVTCVVVDVKHEDPEVKFNWYVDGVEVHNAKTKPREEEYNSTYRVVSVLTVLHQDWLNGKEYKCKVSNKALPAPIEKTISKAKGQPREPQVYTLPPSREEMTKNQVSLTCDVSGFYPSDIAVEWESDGQPENNYKTTPPVLDSDGSFFLYSKLTVDKSRWEQGDVFSCSVMHEALHNHYTQKSLSLSPGK
scFv-Fc: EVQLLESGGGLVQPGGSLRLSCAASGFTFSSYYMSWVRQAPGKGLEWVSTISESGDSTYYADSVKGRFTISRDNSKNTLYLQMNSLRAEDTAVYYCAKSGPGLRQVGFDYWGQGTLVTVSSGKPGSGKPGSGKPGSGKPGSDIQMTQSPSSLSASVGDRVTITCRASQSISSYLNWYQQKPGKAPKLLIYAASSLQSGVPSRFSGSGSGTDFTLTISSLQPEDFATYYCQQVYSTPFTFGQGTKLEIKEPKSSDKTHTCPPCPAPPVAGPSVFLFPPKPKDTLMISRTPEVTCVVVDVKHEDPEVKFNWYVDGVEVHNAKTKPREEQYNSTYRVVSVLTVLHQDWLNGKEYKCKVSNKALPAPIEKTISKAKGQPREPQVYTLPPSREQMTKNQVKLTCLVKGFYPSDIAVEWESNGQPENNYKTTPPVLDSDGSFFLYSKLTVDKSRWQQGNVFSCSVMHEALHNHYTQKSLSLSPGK
light: EIVLTQSPGTLSLSPGERATLSCRVSSSIQSTNLHWYQQKPGQSPRPLIYGTSNLASGVPVRFSGSGSGTDYTLTISRLEPEDFAVYYCQQWSSYPLYTFGGGTKVEIKRTVAAPSVFIFPPSDEQLKSGTASVVCLLNNFYPREAKVQWKVDNALQSGNSQESVTEQDSKDSTYSLSSTLTLSKADYEKHKVYACEVTHQGLSSPVTKSFNRGEC

Kd (human PDL1 antigen [7]): 2.6 nM
Kd (human PDL1 antigen [8]): 2.6 nM
Kd (cynomolgus PDL1 antigen [4]): 2.2 nM
B8: XENP37559 (bispecific antibody)
heavy: EVQLLESGGGLVQPGGSLRLSCAASGFTFSSYDMSWVRQAPGKRLEWVSTISSGGSFTHYPDSVKGRFTISRDNSKNTLYLQMNSLRAEDTAVYYCVRRSGDWYFDVWGAGTTVTVSSASTKGPSVFPLAPSSKSTSGGTAALGCLVKDYFPEPVTVSWNSGALTSGVHTFPAVLQSSGLYSLSSVVTVPSSSLGTQTYICNVNHKPSDTKVDKKVEPKSCDKTHTCPPCPAPPVAGPSVFLFPPKPKDTLMISRTPEVTCVVVDVKHEDPEVKFNWYVDGVEVHNAKTKPREEEYNSTYRVVSVLTVLHQDWLNGKEYKCKVSNKALPAPIEKTISKAKGQPREPQVYTLPPSREEMTKNQVSLTCDVSGFYPSDIAVEWESDGQPENNYKTTPPVLDSDGSFFLYSKLTVDKSRWEQGDVFSCSVMHEALHNHYTQKSLSLSPGK
scFv-Fc: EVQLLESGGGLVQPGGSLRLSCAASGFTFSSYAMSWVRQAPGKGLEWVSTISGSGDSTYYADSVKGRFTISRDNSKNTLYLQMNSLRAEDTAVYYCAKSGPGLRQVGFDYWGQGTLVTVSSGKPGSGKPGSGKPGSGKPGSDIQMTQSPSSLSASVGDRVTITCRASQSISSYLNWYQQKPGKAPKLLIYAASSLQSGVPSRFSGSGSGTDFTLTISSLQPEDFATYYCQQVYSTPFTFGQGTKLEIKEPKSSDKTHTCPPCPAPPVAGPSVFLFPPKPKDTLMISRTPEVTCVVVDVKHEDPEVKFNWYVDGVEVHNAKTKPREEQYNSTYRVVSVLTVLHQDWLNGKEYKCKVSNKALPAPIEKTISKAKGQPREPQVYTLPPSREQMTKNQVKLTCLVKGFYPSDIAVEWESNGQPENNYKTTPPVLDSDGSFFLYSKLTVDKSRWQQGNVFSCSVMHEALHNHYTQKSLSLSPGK
light: EIVLTQSPGTLSLSPGERATLSCRVSSSISSSNLHWYQQKPGQSPRPLIYGTSNLASGVPVRFSGSGSGTDYTLTISRLEPEDFAVYYCQQWSSYPLYTFGGGTKVEIKRTVAAPSVFIFPPSDEQLKSGTASVVCLLNNFYPREAKVQWKVDNALQSGNSQESVTEQDSKDSTYSLSSTLTLSKADYEKHKVYACEVTHQGLSSPVTKSFNRGEC
